Test results as given in paper PMC6706414.

Target: Mimic of H2B ubiquitinated nucleosome core particle with H3K36M (ubiquitin fused to H2A R17, H2B, H3K36M, H4, 149 bp 601 DNA) (S. cerevisiae | Xenopus laevis) (UniProt P0CG63)
Assay: native gel or EMSA; native PAGE; NCPs and Set2 incubated for 1 h on ice in 25 mM HEPES, pH 7.5, 50 mM NaCl, 1 mM DTT, 160 μm SAM

UniProt P0CG63, sequence (P0CG63 whole entry, looked up, the tested form may be a part): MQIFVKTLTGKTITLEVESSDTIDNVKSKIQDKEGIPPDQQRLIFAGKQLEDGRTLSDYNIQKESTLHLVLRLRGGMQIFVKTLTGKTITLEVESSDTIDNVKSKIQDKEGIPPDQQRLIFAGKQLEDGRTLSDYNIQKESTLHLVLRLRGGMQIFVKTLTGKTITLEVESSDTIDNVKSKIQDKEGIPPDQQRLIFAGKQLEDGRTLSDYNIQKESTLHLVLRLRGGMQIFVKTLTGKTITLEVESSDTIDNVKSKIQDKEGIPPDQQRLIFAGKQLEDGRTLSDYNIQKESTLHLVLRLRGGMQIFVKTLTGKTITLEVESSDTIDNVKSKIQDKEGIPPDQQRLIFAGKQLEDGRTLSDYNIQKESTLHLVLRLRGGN

Question: “Chaetomium thermophilum Set2 methyltransferase, full-length (enzyme)” was tested. Which percent of the NCP band shifted at twofold excess of Set2 did it give?
Answer: 50%
